Reference: paper doi:10.1101/2025.09.08.674899 (bioRxiv, 2025)

Target: T1, PSAF subunit of Chlamydomonas reinhardtii Photosystem I (Chlamydomonas reinhardtii (endogenous …, UniProt P12356 63-227))
T1 sequence (looked up): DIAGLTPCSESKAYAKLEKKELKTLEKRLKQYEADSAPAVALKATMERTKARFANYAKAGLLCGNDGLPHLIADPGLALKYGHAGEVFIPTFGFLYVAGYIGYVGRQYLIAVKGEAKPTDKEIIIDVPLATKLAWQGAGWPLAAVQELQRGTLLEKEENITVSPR
Assay: cross-linking

B1: Chlamydomonas reinhardtii cytochrome c6 E71Q (natural protein)
chain: ADLALGAQVFNGNCAACHMGGRNSVMPEKTLDKAALEQYLDGGFKVESIIYQVENGKGAMPAWADRLSEEQIQAVAEYVFKQATDAAWKY
modifications: heme (c-type cytochrome)
  binding result: binds
